Reference: patent US20160311923A1 (SORRENTO THERAPEUTICS, published 2016)

Columns and labels:
[1] = biological target: T1, endogenous human ErbB3 expressed on human cancer cells (MCF7; A431NS) (human, UniProt P21860 20-1342); assay: cell-based or functional assay
[2] = biological target: T1, endogenous human ErbB3 expressed on …; assay: flow cytometry on MCF7 cells
Procedure: This example illustrates the binding of anti-ErbB3 antibodies to endogenous human ErbB3 expressed on human cancer cells, as assayed by flow cytometry. EC₅₀ values for antibodies were determined as follows.
Her3 expressing MCF7 cells were harvested with enzyme-free Cell Dissociation Buffer (GIBCO) and transferred to V-Bottom 96 well-plates (50,000 cells/well). Cells were incubated on ice for 30 min with serial dilutions of anti-ErbB3 antibodies in FACS buffer (PBS+2% FBS)+NaN₃. After 2 washes in FACS buffer, a 1:1000 dilution of Phycoerythrin conjugated anti-Human IgG (γ-chain specific) was added and incubated for 30 min. Following a final wash, fluorescence intensity was measured on an Intellicyt High Throughput Flow Cytometer (HTFC). Data were analyzed using Graphpad Prism software using non-linear regression fit. Data points are shown as the median fluorescence intensity (MFI) of positively labeled cells +/− Standard Error. EC₅₀ values are reported as the concentration of antibody to achieve 50% of maximal ErbB3 antibodies binding to ErbB3 expressing cells.

T1 sequence (P21860 20-1342): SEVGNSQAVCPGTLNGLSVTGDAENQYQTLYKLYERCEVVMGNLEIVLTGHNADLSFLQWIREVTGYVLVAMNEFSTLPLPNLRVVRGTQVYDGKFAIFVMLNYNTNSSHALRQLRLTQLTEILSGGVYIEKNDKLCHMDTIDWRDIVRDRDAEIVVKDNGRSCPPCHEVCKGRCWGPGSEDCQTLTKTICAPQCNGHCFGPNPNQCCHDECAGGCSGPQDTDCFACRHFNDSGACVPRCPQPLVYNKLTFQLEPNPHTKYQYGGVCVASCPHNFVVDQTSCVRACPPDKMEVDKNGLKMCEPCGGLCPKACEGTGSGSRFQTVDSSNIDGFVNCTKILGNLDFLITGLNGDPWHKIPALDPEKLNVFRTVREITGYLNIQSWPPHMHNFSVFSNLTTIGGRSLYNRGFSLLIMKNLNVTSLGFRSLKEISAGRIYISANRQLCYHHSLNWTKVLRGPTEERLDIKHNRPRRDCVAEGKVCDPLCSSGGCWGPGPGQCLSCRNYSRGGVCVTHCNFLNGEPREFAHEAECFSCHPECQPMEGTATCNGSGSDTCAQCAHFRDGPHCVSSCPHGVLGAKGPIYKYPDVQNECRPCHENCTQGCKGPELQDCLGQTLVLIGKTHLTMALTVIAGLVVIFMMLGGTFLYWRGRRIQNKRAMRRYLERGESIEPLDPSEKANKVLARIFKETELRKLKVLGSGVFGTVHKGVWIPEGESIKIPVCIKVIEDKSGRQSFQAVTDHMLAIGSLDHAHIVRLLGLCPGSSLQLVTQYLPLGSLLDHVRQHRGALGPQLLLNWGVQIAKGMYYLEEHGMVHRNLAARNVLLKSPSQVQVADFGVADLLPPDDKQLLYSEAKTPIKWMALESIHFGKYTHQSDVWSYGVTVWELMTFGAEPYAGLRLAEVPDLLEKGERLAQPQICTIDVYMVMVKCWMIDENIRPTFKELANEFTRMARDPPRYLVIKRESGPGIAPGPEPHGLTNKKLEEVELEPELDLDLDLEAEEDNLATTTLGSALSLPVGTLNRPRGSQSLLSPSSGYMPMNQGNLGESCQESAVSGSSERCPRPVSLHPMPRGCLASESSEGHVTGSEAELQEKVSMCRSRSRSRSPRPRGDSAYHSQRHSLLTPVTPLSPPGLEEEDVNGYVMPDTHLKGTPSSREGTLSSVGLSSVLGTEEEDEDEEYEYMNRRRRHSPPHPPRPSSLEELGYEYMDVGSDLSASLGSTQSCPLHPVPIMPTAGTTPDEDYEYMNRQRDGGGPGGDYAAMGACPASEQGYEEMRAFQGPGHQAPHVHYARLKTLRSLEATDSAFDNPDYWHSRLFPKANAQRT

B1: A01 (antibody, V domains shown)
VH: QVQLVQSGAEVKQPGASVKVSCKASGGTFSSYAISWVRQAPGQGLEWMGGIIPIFGTANYAQKFQGRVTITADESTSTAYMELSSLRSEDTAVYYCATTTMVRGVIMYYFDYWGQGTLVTVSS
VL: QSALTQPPSASGSPGQSVTISCTGTSSDVGAYNDVSWYQHHPGKAPKLIIYEVNHRPSGVPDRFSGSKSDNTASLTISGLQAEDEADYYCSSYTPSNTPLVFGSGTKVTVL
notes: fully human antibody of an IgG class, detected with anti-human IgG (gamma-chain specific); also called ErbB3-A01; anti-ErbB3 A01
Q: Which “IC50, inhibition of ERK1/2 phosphorylation induced by NRG1 beta-1 (phospho-p44/42 MAPK ELISA, MCF7)” value [1] does the source give for B1 here?
A: 460 pM

Q: And the “IC50, inhibition of ErbB3 phosphorylation induced by Heregulin (phospho-HER3 ELISA, MCF7)” value [1]?
A: 460 pM

Q: And the “IC50, inhibition of NRG1-beta 1 induced MCF7 proliferation (MTT)” value [1]?
A: 10600 pM

Q: What about the EC50 [2] of the same binder?
A: 5710 pM

B2: A02 (antibody, V domains shown)
VH: EVQLVQSGAEVKKPGASVTVSCKPSGYAFTDYYIHWVRQAAGQGLEWMGWVDPRSGATVYAQNFQGRVTMTRDRSSSTVYMDLSRVTSDDTALYFCGRDNYGIFDYWGQGTLVTVSS
VL: QPVLTQPPSVSAAPGQRVTISCSGSSSNIGNNYLSWYQQLPGTAPKLLIYDDTKRPSGIPDRFSGSKSGTSATLGITGLQTGDEADYYCGTWDGSLDAEVFGTGTKLTVL
notes: also called ErbB3-A02; anti-ErbB3 A02
Q: What does the source list for B2?
A: IC50, inhibition of ERK1/2 phosphorylation induced by NRG1 beta-1 (phospho-p44/42 MAPK ELISA, MCF7) [1]: 120 pM; IC50, inhibition of ErbB3 phosphorylation induced by Heregulin (phospho-HER3 ELISA, MCF7) [1]: 120 pM; IC50, inhibition of NRG1-beta 1 induced MCF7 proliferation (MTT) [1]: 2800 pM; EC50 [2]: 1220 pM

B3: A08 (antibody, V domains shown)
VH: QMQLVQSGADVKKPGASVRVSCKTSGYTFTSYDINWVRQAPGQGLEWMGWMNPDTGNTAYVQKFQGRVTVTRDTSINTVYMELSGLRSEDTAVYYCAKSGGSSSYDAFDIWGQGTMVTVSS
VL: QSVLTQPPSVSVAPGNTATITCGGDNIGEKTVHWYQQRPGQAPALVIYYDSDRPSGIPERFSGSNSGNTATLTISRVEAGDEADYYCQVWDSSSDHVVFGGGTKLTVL
notes: also called ErbB3-A08
Q: B3 was tested. Which “IC50, inhibition of NRG1-beta 1 induced MCF7 proliferation (MTT)” value [1] did it give?
A: 12800 pM

Q: And the EC50 [2]?
A: 747 pM

B4: A04 (antibody, V domains shown)
VH: QVQLQQSGPGLVQPSQTLSLTCDISGDSVSSTGAAWNWIRQSPSRGLEWLGRTYYRSKWYNDYALSVRSRITITPDTSKNQFSLQLNSVTPEDTAVYYCVRDGDVGLDAFDIWGQGTMVTVSS
VL: QTVVTQAPSVSVAPGQTARITCGGNNIGSKSVHWYQQKPGQAPVLVVYDDSDRPSGIPERFSGSNSGNTATLTISRVEAGDEADYYCQVWDSTSDHVVFGGGTKVTVL
notes: also called ErbB3-A04; anti-ErbB3 A04
Q: What does the source list for B4?
A: IC50, inhibition of ERK1/2 phosphorylation induced by NRG1 beta-1 (phospho-p44/42 MAPK ELISA, MCF7) [1]: 130 pM; IC50, inhibition of ErbB3 phosphorylation induced by Heregulin (phospho-HER3 ELISA, MCF7) [1]: 130 pM; EC50 [2]: 163 pM

B5: D01 (antibody, V domains shown)
VH: EVQLVQSGAEVRKPGASVKVSCKASQYTFTNYHIHWVRQVPGQGLEWMAMINPSNGNTNYGQRFQDRVTLTRDTSTSTAYMELSSLRSEDTAVYLCARDGLTFGDLLAYWGQGTLVTVSS
VL: QSVLTQPPSASGTPGQSVTISCSGSSSNIGGNTVNWYQQFPGTAPKLLMYINNLRPAGVPDRFSGSKSGTSASLVISGLQSEDEADYYCASWDDSLSGLVFGGGTKLTVL
Q: For B5, which EC50 [2] is on record?
A: 4030 pM

B6: D03 (antibody, V domains shown)
VH: QVQLVESGGGLVKPGGSLRLSCAASGFTFSSYSMNWVRQAPGKGLEWVSSISSSSSYIYYADSVKGRFTISRDNSKNTLYLQMNSLRDEDTAVYYCAREILTGYYPDAFDMWGQGTMVTVSS
VL: SYELMQPPSVSVAPGKTARITCGGNNIGSKSVHWYQQKPGQAPVVVIYYDSDRPSGIPERFSGSNSGNTATLTISRVEAGDEADYYCQVWDSSSDHYVFGTGTKLTVL
Q: How did the EC50 [2] turn out when B6 was run?
A: 5970 pM

B7: D04 (antibody, V domains shown)
VH: EVQLLESGGGLVKPGGSLRLSCAASGFTFSSYSMNWVRQAPGKGLEWVSSISSSSSYIYYADSVKGRFTISRDNAKNSLYLQMNSLRAEDTAVYYCARGFGEDLFDYWGQGTLVTVSS
VL: QSVLTQPPSVSVAPGKTARITCGGNNIGSKSVHWYQQKPGQAPLLVIYYDTDRPSGIPERFSGSNSENTATLTISGVEAGDEADYYCQVWDIGSDQVVFGTGTKVTVL
Q: How did the EC50 [2] turn out when B7 was run?
A: 24.2 pM

B8: D07 (antibody, V domains shown)
VH: QVQLVESGGGLVQPGGSLRLSCVASGFTFSSYWMSWVRQAPGKGLEWVAYINLDGSEKDYVDSVKGRFTISRDNAKNSLYLQMNSLRAEDTALYYCAKAYSSSWLLSGGMDVWGQGTTVTVSS
VL: SYELTQPASVSGSPGQSITISCTGTSSDVGNYNSVSWYQQHPGKAPELMIYDVNNRPSGVSNRFSGSKSGNTASLTISGLQAEDEADYYCSSYTSSSTLVFGGGTQLTVLG
Q: Which EC50 [2] does the source give for B8 here?
A: 933 pM

B9: D08 (antibody, V domains shown)
VH: QVQLVESGGGLVKPGGSLRLSCAASGFTSSSYVLNWVRQAPGKGLEWVSSISSRGSYIYYADSVKGRFTISRDNAKNSLYLQMNSLRAEDTAVYYCARERAGFSPVNAFDIWGQGTMVTVSS
VL: QSVLTQPASVSGSPGQSITISCTGSSSDVGSYNLVSWYQQHPGKAPKLMIYDDNRRPSGISTRFSGSKSGNTASLTVSGLQAEDEAYYYCSSYAGRNNDVIFGGGTQLTVL
Q: How did the EC50 [2] turn out when B9 was run?
A: 1930 pM

B10: D10 (antibody, V domains shown)
VH: QVQLVESGGGLVQPGGSLRLACAASGFTFSNYEMNWVRQAPGKGLEWVATISDDSVYKYYADSVKGRFTISRDNSKALFYLQMDSLTFEDTAIYYCARDPGGDSLGYFQHWGQGTLVTVSS
VL: QAGLTQPPSASASPGDSVTLTCTLSSDHSDYKVDWYQQRPGKGPRFVMRVGTGGIVGVKGDGIPDRFSVWGSGPNRYLTIKNIQEEDESDYHCGSDHGSGNNYVYVFGGGTKLTVL
Q: With B10 as the binder, how does the EC50 [2] read?
A: 2010 pM

B11: E08 (antibody, V domains shown)
VH: EVQLVESGGGLIQPGGSLRLSCAASGFTVSSNYMSWVRQAPGKGLEWVSVIYSGGSTYYADSVKGRFTISRDNSKNTLYLQMNSLRAEDTAVYYCARDFGVGAVDYWGQGTLVTVSS
VL: QSVLTQPASVSGSPGQSITISCTGTSSDVGGYNFVSWYQQHPGKAPKLMIYDVTNRPSGVSNRFSGSKSGNTASLTISGLQAEDEADYYCSSYTDSSTLDVVFGGGTKVTVL
Q: With B11 as the binder, how does the EC50 [2] read?
A: 3070 pM

B12: A11 (antibody, V domains shown)
VH: QVQLVQSGRGLVQPGRSLRLSCAASGFTFDEYAMHWVRHAPGKGLEWVAGMSWNGGGIGYADSVKGRFTISRDNSKNTLYLQMNSLRAEDTAVYYCAREGAGGSYPTDAFDIWGQGTTVTVSS
VL: IVLTQSPSSLSASVGDRVTITCQASHDISNYLTWYQHRPGRAPKLLIFDASRLETGVPSRFSGYGSGKDFTFTISGLQPEDFATYYCQHYADLPSFGQGTKLEIK
notes: also called ErbB3-A11
Q: With B12 as the binder, how does the EC50 [2] read?
A: 219 pM

B13: B01 (antibody, V domains shown)
VH: QVQLVESGGGLVQPGGSLRLACAASGFTFSNYEMNWVRQAPGKGLEWVATISDDSVYKYYADSVKGRFTISRDNSKALFYLQMDSLTFEDTAIYYCARDPGGDSLGYFQHWGQGTLVTVSS
VL: QAGLTQPPSASASPGDSVTLTCTLSSDHSDYKVDWYQQRPGKGPRFVMRVGTGGIVGVKVSNRFSGSKSGNTASLTISGLQAEDEADYYCSSYTDSSTLDVVFGGGTKLTVL
Q: B13 was tested. Which EC50 [2] did it give?
A: 2650 pM

B14: B08 (antibody, V domains shown)
VH: QVQLVQSGAEVKKPGASVKVSCKASGYTFTSHYGISWVRQAPGQGLEWMGSITPHNGKTNYVQMFQGRVTMTTDTSTRTVYMELRNLRSDDTAVYYCARDWNFADFDYWGQGTLVTVSS
VL: QSVLTQPPSASGSPGQSVTISCTGTSSDVGGYNFVSWYQQHPGKAPKLMIYDVTNRPSGVSNRFSGSKSGNTASLTISGLQAEDEADYYCSSYTSSSTPYVFGTGTKLTVL
Q: With B14 as the binder, how does the EC50 [2] read?
A: 92.1 pM

B15: B11 (antibody, V domains shown)
VH: QVQLVQSGRGLVQPGRSLRLSCAASGFTFDEYAMHWVRHAPGKGLEWVAGMSWNGGGIGYADSVKGRFTISRDNSKNTLYLQMNSLRAEDTAVYYCAREGAGGSYPTDAFDIWGQGTTVTVSS
VL: EIVLTQSPSSLSASVGDRVTITCQASHDISNYLTWYQHRPGRAPKLLIFDASRLETGVPSRFSGYGSGKDFTFTISGLQPEDFATYYCQHYADLPSFGQGTKVDIK
Q: Which EC50 [2] does the source give for B15 here?
A: 49 pM

B16: C03 (antibody, V domains shown)
VH: QVQLVQSGAEVKKPGASVKVSCKASGYTFTSYGISWVRQAPGQGLEWMGWISAYNGNTNYAQKLQGRVTMTTDTSTSTAYMELRSLRSDDTAVYYCAREAYAWGAFDIWGQGTMVTVSS
VL: SYELMQPPSVSVAPGKTARITCGGNNIGSKSVHWYQQKPGQAPVLVIYYDSDRPSGIPERFSGSNSGNTATLTISRVEAGDEADYYCQVWDSSRDHAVFGGGTKLTVL
Q: With B16 as the binder, how does the EC50 [2] read?
A: 427 pM
